From US20240255495

Experiments:
[1] = target: thrombin (UniProt P00734+P00734); assay: FP
[2] = target: T1, FOXM1 (UniProt Q08050); settings: PS; cited from earlier work
T1 sequence: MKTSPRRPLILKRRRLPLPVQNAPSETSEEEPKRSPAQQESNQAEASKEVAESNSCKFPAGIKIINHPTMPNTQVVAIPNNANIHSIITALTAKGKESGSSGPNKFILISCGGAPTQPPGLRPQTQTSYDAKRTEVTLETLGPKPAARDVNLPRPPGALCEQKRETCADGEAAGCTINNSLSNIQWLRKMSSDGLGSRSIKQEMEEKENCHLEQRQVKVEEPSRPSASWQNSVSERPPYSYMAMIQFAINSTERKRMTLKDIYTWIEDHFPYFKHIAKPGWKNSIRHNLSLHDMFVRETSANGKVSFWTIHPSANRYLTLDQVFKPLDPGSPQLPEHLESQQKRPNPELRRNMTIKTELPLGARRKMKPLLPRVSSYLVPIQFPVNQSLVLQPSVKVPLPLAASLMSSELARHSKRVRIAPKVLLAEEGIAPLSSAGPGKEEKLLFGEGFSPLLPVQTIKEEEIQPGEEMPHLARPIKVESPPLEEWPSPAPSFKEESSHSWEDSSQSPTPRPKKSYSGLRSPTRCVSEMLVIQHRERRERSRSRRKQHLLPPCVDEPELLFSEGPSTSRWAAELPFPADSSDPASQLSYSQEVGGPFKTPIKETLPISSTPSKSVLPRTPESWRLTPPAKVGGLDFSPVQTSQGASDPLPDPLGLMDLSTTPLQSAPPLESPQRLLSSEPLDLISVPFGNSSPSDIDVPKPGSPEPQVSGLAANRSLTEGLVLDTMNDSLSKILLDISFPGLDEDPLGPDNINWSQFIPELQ

For GGTTGGTGTGGTTGG [TBA(3)-2b], which Kd ([1]; T3 replaced by 5-ethynyl-dU clicked to inactivated N-acyl sulfonamide biotin warhead 2b) is on record?
The Kd was 395 nM.

With GGTTGGTGTGGTTGG [TBA(9)-2b] as the sequence, how does the Kd ([1]; T9 replaced by 5-ethynyl-dU clicked to inactivated N-acyl sulfonamide biotin warhead 2b) read?
The Kd was 520 nM.

For “TCACTTCACACCGCATCTCTACGTCCGGTTGCGCTTTCCTTT [FBA]”, which Kd [2] is on record?
Its Kd is 65 nM.
